{"source": "patent US20130149309A1", "target": "γ-secretase of HEK293 cell membrane preparations", "test": "cell-based or functional assay", "data": [{"substance": "recombinant gSAP-16K (aa733-854 of the human gSAP), expressed and purified from BL21 DE3 E.coli (from UniProt A4D1B5 733-854)", "values": [{"measurement": "Aβ production in an in vitro γ-secretase assay", "value": 2.4, "unit": "fold"}]}]}
